US20200157212A1 (Pfizer, published 2020)

Tests used:
[1] = biological target: T1, Terbium (Tb) labeled-SNAP tagged ROBO2 expressed on HEK293 cells (Homo sapiens (Human), UniProt Q9HCK4 22-1378, terbium label on the SNAP tag); assay: HTRF, 5 nM d2-SLIT2-N on Tb-SNAP-ROBO2 HEK293 cells, 1 nM antibody
T1 construct: also called Tb-labeled ROBO2 cells; ROBO2 expressing cells; not shown: SNAP tag
T1 sequence: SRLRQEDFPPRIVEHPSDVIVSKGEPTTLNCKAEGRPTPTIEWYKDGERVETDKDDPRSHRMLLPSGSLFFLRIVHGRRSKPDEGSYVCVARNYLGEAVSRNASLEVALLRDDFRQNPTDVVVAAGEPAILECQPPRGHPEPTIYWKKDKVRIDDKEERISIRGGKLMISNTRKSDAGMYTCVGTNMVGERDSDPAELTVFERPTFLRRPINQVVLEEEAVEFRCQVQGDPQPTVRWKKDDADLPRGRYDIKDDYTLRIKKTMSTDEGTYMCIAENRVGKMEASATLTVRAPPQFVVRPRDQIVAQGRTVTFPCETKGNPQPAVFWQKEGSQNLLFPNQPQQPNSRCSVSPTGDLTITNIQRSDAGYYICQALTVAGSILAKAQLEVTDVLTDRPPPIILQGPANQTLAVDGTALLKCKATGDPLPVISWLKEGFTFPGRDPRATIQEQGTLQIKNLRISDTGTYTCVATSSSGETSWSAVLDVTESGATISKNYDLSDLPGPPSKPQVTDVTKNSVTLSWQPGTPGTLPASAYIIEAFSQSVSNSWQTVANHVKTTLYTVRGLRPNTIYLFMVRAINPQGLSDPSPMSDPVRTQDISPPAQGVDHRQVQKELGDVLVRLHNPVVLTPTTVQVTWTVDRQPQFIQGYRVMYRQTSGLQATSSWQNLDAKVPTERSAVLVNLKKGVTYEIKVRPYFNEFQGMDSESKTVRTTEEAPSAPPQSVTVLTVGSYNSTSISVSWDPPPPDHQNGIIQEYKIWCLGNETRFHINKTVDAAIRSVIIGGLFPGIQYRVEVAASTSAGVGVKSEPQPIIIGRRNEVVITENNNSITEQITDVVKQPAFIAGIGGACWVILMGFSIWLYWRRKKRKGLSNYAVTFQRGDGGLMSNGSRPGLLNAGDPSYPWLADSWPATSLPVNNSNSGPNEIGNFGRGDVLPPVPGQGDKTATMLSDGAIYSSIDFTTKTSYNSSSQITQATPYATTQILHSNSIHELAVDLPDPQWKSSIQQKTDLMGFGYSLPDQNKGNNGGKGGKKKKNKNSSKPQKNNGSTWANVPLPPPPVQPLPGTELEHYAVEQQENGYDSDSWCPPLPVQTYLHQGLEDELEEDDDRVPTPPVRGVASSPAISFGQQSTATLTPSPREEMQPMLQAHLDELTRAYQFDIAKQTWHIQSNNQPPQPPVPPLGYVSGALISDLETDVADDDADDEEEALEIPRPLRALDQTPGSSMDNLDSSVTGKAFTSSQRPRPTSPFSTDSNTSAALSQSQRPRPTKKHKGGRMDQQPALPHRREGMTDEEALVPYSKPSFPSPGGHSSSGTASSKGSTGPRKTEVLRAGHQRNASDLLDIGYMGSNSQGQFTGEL
In short: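 Tb-SNAP-ROBO2 HEK293 cells incubated 1 hour with 5 nM d2-SLIT2-N, with 1 nM anti-ROBO2 antibody or none (maximal signal); cells alone gave minimum. HTRF read at 665/620 nm; IC50 series used 11-point, 5-fold dilutions from 1500 nM.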

[2] = biological target: T2, Human ROBO1 RSK mutant overexpressed on HEK293 cells (human, UniProt Q9Y6N7 26-1651); assay: flow cytometry, Geo MFI ROBO1-RSK/ROBO2-KSR HEK293 cells, 2.5 µg/ml
T2 construct: K137R and R139K already in the entry; also called ROBO1-RSK cells
T2 sequence (Q9Y6N7 other isoform, or with tags, fused parts or gaps mutant limits assumed): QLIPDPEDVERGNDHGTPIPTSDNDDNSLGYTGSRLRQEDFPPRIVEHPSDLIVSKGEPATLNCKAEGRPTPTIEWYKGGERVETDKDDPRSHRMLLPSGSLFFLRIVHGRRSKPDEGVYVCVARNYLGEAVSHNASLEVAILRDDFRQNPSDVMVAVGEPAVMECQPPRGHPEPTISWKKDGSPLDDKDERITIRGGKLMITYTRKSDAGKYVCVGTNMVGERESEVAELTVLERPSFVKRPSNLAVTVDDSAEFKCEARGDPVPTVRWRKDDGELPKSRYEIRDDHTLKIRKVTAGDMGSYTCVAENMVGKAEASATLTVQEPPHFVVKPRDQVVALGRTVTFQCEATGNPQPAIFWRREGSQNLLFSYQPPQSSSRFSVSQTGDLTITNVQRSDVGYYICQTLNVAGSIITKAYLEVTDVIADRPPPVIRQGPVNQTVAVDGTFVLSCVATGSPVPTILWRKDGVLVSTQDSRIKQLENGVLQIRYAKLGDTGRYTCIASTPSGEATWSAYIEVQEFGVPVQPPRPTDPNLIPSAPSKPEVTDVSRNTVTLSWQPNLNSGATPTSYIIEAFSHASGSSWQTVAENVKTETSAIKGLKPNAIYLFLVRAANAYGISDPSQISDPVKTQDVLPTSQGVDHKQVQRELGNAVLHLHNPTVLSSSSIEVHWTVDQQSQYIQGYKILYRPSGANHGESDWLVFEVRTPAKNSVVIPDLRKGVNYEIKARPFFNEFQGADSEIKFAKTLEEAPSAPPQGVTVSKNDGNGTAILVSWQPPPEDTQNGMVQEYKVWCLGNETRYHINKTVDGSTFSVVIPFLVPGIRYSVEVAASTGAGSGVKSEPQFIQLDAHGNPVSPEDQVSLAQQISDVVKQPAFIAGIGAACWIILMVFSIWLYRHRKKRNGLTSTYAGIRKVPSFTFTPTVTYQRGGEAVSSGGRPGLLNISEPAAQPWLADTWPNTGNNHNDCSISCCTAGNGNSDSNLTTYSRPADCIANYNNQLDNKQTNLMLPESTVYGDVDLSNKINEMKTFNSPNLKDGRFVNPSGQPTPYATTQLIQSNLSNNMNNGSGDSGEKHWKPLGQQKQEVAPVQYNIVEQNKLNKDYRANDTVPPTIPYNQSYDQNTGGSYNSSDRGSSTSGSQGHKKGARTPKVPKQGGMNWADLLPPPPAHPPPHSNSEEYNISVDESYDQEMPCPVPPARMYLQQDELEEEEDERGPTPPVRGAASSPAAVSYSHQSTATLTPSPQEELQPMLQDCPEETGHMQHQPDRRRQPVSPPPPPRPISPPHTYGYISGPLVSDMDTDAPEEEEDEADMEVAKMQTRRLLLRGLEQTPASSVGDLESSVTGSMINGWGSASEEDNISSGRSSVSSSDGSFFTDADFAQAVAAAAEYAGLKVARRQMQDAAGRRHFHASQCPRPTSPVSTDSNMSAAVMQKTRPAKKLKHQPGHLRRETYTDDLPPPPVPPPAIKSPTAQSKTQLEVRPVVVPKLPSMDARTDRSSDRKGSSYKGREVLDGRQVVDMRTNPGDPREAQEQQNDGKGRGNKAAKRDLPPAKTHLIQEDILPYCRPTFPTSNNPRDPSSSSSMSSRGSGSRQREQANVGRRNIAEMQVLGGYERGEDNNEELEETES

[3] = biological target: T3, Human ROBO2 overexpressed on HEK293 cells (human, UniProt Q9HCK4 22-1378); assay: flow cytometry, Geo MFI ROBO2/ROBO1 HEK293 cells, 2.5 µg/ml
T3 construct: also called ROBO2 cells; native ROBO2
T3 sequence: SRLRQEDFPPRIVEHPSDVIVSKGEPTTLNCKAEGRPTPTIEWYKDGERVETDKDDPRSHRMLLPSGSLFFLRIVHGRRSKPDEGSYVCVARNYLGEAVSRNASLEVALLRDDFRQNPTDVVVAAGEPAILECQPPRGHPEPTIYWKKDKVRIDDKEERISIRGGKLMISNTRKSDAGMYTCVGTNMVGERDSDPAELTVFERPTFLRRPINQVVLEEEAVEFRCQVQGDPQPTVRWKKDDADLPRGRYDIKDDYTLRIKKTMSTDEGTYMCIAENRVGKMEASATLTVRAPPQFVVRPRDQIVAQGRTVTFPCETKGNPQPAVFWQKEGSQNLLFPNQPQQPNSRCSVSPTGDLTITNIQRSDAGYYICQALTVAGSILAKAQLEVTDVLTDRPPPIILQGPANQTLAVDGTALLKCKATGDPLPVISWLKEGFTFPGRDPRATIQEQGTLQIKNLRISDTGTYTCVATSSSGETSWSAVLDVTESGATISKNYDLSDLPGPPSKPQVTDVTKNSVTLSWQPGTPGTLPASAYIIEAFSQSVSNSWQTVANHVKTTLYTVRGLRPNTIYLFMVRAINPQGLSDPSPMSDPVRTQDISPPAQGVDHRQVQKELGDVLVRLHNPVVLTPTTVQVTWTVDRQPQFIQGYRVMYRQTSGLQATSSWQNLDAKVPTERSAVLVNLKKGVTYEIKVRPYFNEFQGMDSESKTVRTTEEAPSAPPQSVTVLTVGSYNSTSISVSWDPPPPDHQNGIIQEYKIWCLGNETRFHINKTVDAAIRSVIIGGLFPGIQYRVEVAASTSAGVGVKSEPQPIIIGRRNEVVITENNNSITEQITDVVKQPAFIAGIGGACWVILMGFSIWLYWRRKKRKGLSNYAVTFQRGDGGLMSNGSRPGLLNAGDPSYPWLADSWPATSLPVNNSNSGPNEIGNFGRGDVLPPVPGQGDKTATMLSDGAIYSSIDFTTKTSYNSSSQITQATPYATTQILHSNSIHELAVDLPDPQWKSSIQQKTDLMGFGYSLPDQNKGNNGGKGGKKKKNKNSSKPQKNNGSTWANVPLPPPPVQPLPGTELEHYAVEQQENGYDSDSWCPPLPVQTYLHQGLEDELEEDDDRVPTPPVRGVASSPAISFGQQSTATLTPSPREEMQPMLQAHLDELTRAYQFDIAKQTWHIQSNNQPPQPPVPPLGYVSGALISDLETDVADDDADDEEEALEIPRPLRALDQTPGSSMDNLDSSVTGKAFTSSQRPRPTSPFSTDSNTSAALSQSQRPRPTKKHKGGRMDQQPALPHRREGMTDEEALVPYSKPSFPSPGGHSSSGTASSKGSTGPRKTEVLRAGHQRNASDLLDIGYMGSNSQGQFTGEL
Method: Binding of the antibodies was detected using a secondary fluorochrome conjugated anti-human IgG F(ab′)₂ antibody and samples were analyzed on a Fortessa cytometer (BD Biosciences). The fold ROBO2 selectivity was calculated as the geometric mean fluorescence intensity (Geo MFI) with ROBO2 cells/Geo MFI with ROBO1 cells. A fold change higher than 3 was considered to be ROBO2 specific (Table 2, Fold Selectivity). Some affinity matured clones had increased ROBO1 reactivity, for example Abcs 55, CTI-R2-10 and CTIR2-13.
HTRF assays were run with 5 nM d2-labeled SLIT2-N and antibodies were added at 1 nM. […] Antibodies derived from chain (Abcs series) or CDR shuffling (CTIR-2 series) were evaluated in 11-point, 5-fold dilution series with a top concentration of 1500 nM, N.T. = not tested; ^cFold selectivity was calculated as Geometric Mean Fluorescent Intensity (Geo MFI) of ROBO2/Geo MFI of ROBO1 binding. […] Outcomes: results are listed in order of assays listed in the table (left to right), I.A. = Improved Affinity

Row | Binder | HTRF Ratio [1] | Fold Selectivity for RSK/KSR [2] [fold] | Fold Selectivity for ROBO2/ROBO1 [3] [fold]
1 | 93H2 (antibody, human IgG1, kappa, V domains shown, also called parental 93H2; 93H2 mAb) VH: EVQLVQSGAEVKKPGASVKVSCKASGYTFTGYYMHWVRQAPGQGLEWMGWINPNSGATNFPQKFQGRVTMTRDTSITTAYMDLSRLRSDDTAVYYCARESGDDAFDIWGQGTMVTVSS VL: not shown | 13800 |  | 
2 | Abcs55 (antibody, human IgG1, kappa, V domains shown, chain-shuffled IgG) VH: EVQLVQSGAEVKKPGASVKVSCKASGYTFTGYYMHWVRQAPGQGLEWMGWINPKDGDTEFPQKFQGRVTMTRDTSITTAYMDLSRLRSDDTAVYYCARESGDDAFDIWGQGTMVTVSS VL: DIVMTQSPSSLSASVGDRVTITCRASQSISSYLNWYQQKPGKAPKLLIYAASSLQYGVPSRFSGSGSGTDFTLTISSLQPEDFATYYCQQSYSTSFGGGTKVEIKR | 3050 | 1.5 | 1.5
3 | CTIR2-16 (antibody, human IgG1, kappa, V domains shown, CDR-shuffled IgG) VH: EVQLVQSGAEVKKPGASVKVSCKASGYTFRGYAMHWVRQAPGQGLEWMGWIDPRTGLTKFPQKFQGRVTMTRDTSITTAYMDLSRLRSDDTAVYYCARESGDDAFDIWGQGTMVTVSS VL: DIVMTQSPSSLSASVGDRVTITCRASQKISSYLNWYQQKPGKAPKLLIYAASSLQYGVPSRFSGSGSGTDFTLTISSLQPEDFATYYCQQSVGLFFGGGTKVEIKR | 3730 | 66.5 | 6.2
4 | CTIR2-14 (antibody, human IgG1, kappa, V domains shown, CDR-shuffled IgG) VH: EVQLVQSGAEVKKPGASVKVSCKASGYTFRGYAMHWVRQAPGQGLEWMGWIDPRTGLTKFPQKFQGRVTMTRDTSITTAYMDLSRLRSDDTAVYYCARESGDDAFDIWGQGTMVTVSS VL: DIVMTQSPSSLSASVGDRVTITCRASQKISSYLNWYQQKPGKAPKLLIYAASSLQYGVPSRFSGSGSGTDFTLTISSLQPEDFATYYCQQSLELGFGGGTKVEIKR | 3710 | > 100 | 23.9
5 | Abcs25 (antibody, human IgG1, kappa, V domains shown, chain-shuffled IgG) VH: EVQLVQSGAEVKKPGASVKVSCKASGYTFTGYYMHWVRQAPGQGLEWMGWINPKDGDTEFPQKFQGRVTMTRDTSITTAYMDLSRLRSDDTAVYYCARESGDDAFDIWGQGTMVTVSS VL: DIVMTQSPSSLSASVGDRVTITCRASQSISSYLNWYQQKPGKAPKLLIYAASSLQSGVPSRFSGSGSGTDFTLTISSLQPEDFATYYCQQSVGLSFGGGTKVEIKR | 3880 | 8.1 | 3.3
6 | Abcs20 (antibody, human IgG1, kappa, V domains shown, chain-shuffled IgG) VH: EVQLVQSGAEVKKPGASVKVSCKASGYTFTGYYMHWVRQAPGQGLEWMGWINPKNGDTEFPQKFQGRVTMTRDTSITTAYMDLSRLRSDDTAVYYCARESGDDAFDIWGQGTMVTVSS VL: DIVMTQSPSSLSASVGDRVTITCRASQSISSYLNWYQQKPGKAPKLLIYAASSLQSGVPSRFSGSGSGTDFTLTISSLQPEDFATYYCQQSVGLSFGGGTKVEIKR | 3970 | 7 | 5.2
7 | CTIR2-15 (antibody, human IgG1, kappa, V domains shown, CDR-shuffled IgG) VH: EVQLVQSGAEVKKPGASVKVSCKASGYTFRGYAMHWVRQAPGQGLEWMGWIDPRTGLTKFPQKFQGRVTMTRDTSITTAYMDLSRLRSDDTAVYYCARESGDDAFDIWGQGTMVTVSS VL: DIVMTQSPSSLSASVGDRVTITCRASQKISSYLNWYQQKPGKAPKLLIYAASSLQYGVPSRFSGSGSGTDFTLTISSLQPEDFATYYCQQSVGLSFGGGTKVEIKR | 3750 | > 100 | 12.1
8 | Abcs40 (antibody, human IgG1, kappa, V domains shown, chain-shuffled IgG) VH: EVQLVQSGAEVKKPGASVKVSCKASGYTFTGYYMHWVRQAPGQGLEWMGWINPKDGDTEFPQKFQGRVTMTRDTSITTAYMDLSRLRSDDTAVYYCARESGDDAFDIWGQGTMVTVSS VL: DIVMTQSPSSLSASVGDRVTITCRASQSISSYLNWYQQKPGKAPKLLIYAASSLQSGVPSRFSGSGSGTDFTLTISSLQPEDFATYYCQQSVGLFFGGGTKVEIKR | 3390 | 9.3 | 4.8
9 | Abcs35 (antibody, human IgG1, kappa, fully human IgG1; VH of Ab96 with VL of Ab123) heavy: EVQLVQSGAEVKKPGASVKVSCKASGYTFTGYYMHWVRQAPGQGLEWMGWINPKNGDTEFPQKFQGRVTMTRDTSITTAYMDLSRLRSDDTAVYYCARESGDDAFDIWGQGTMVTVSSASTKGPSVFPLAPSSKSTSGGTAALGCLVKDYFPEPVTVSWNSGALTSGVHTFPAVLQSSGLYSLSSVVTVPSSSLGTQTYICNVNHKPSNTKVDKKVEPKSCDKTHTCPPCPAPEAAGAPSVFLFPPKPKDTLMISRTPEVTCVVVDVSHEDPEVKFNWYVDGVEVHNAKTKPREEQYNSTYRVVSVLTVLHQDWLNGKEYKCKVSNKALPAPIEKTISKAKGQPREPQVYTLPPSREEMTKNQVSLTCLVKGFYPSDIAVEWESNGQPENNYKTTPPVLDSDGSFFLYSKLTVDKSRWQQGNVFSCSVMHEALHNHYTQKSLSLSPGK light: DIVMTQSPSSLSASVGDRVTITCRASQSISSYLNWYQQKPGKAPKLLIYAASSLQSGVPSRFSGSGSGTDFTLTISSLQPEDFATYYCQQSVGLFFGGGTKVEIKRTVAAPSVFIFPPSDEQLKSGTASVVCLLNNFYPREAKVQWKVDNALQSGNSQESVTEQDSKDSTYSLSSTLTLSKADYEKHKVYACEVTHQGLSSPVTKSFNRGEC | 3940 | 6.6 | 4.8
